Reference: PMC8163507, “PHAROH lncRNA regulates Myc translation in hepatocellular carcinoma via sequestering TIAR”

Experiments:
[1] = biological target: T1, TIAR (nucleolysin TIAR, TIAL-1) (human, UniProt Q01085 1-375); test: EMSA; densitometry of free probe; sequential shifts, prefers two and four copies; EMSA: ~2 fmol probe in 20 ul, 10 mM HEPES pH 7.3, 20 mM KCl, 1 mM MgCl2 (printed Mg2Cl2), 1 mM DTT, 30 ng/ul BSA, 0.01% NP-40, 5% glycerol, room temperature 30; settings: protein: commercial; hairpin (predicted)
T1 sequence: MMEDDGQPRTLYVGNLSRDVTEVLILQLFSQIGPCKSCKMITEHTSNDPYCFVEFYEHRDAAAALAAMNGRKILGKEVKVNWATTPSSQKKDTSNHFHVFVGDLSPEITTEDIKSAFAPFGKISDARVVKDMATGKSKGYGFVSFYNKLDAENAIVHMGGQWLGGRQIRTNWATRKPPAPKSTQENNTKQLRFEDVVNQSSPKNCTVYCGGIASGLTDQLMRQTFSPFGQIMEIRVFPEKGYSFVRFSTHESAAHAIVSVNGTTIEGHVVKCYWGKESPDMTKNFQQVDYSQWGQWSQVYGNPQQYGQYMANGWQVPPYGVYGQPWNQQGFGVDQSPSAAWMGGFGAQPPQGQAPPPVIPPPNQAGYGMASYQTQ

[2] = biological target: T1, TIAR (nucleolysin TIAR, TIAL-1); test: EMSA; prefers one copy; three only at saturating TIAR; EMSA: ~2 fmol probe in 20 ul, 10 mM HEPES pH 7.3, 20 mM KCl, 1 mM MgCl2 (printed Mg2Cl2), 1 mM DTT, 30 ng/ul BSA, 0.01% NP-40, 5% glycerol, room temperature 30; settings: protein: commercial; label: 3' biotin; single strand; sites predicted largely in loop

B1: PHAROH 71-nt hairpin (WT) (structured_RNA)
RNA: GAGAGGAUGCCACUGUUUUGAACUAUUUUGAAGGCACAGCCACCAGAGCUUUAGGGACAGGGUAUUUUAUC
B1 showed a Kd [1] of about 2 nM.

B2: Myc 3' UTR 53-nt fragment (ssRNA)
RNA: GCUUCCCAUCUUUUUUCUUUUUCCUUUUAACAGAUUUGUAUUUAAUUGUUUUU
B2: binds [2].
